Experimental data published in article PMC2570331.

Legend:
Experiment in all cases: split reporter (BiFC, NanoBiT); CFP 1-158 on the N-terminus of α12.2 (WT, Bdel1 or Bdel2), CFP 159-238 on the C-terminus of β3core; HEK-293 cells co-transfected with α2δ1 and an RFP (mCherry or DsRed-Monomer, pooled); median of the cyan/red ratio of single cells
[1] = target: Bdel1 α12.2 tagged with the CFP 1–158 fragment (rat)
[2] = target: WT α12.2 tagged with the CFP 1–158 fragment (rat)
[3] = target: Bdel2 α12.2 tagged with the CFP 1–158 fragment (rat)

Sequence of WT α12.2 tagged with the CFP 1–158 fragment (rat) (Q02294 whole entry, the tested form may be a part): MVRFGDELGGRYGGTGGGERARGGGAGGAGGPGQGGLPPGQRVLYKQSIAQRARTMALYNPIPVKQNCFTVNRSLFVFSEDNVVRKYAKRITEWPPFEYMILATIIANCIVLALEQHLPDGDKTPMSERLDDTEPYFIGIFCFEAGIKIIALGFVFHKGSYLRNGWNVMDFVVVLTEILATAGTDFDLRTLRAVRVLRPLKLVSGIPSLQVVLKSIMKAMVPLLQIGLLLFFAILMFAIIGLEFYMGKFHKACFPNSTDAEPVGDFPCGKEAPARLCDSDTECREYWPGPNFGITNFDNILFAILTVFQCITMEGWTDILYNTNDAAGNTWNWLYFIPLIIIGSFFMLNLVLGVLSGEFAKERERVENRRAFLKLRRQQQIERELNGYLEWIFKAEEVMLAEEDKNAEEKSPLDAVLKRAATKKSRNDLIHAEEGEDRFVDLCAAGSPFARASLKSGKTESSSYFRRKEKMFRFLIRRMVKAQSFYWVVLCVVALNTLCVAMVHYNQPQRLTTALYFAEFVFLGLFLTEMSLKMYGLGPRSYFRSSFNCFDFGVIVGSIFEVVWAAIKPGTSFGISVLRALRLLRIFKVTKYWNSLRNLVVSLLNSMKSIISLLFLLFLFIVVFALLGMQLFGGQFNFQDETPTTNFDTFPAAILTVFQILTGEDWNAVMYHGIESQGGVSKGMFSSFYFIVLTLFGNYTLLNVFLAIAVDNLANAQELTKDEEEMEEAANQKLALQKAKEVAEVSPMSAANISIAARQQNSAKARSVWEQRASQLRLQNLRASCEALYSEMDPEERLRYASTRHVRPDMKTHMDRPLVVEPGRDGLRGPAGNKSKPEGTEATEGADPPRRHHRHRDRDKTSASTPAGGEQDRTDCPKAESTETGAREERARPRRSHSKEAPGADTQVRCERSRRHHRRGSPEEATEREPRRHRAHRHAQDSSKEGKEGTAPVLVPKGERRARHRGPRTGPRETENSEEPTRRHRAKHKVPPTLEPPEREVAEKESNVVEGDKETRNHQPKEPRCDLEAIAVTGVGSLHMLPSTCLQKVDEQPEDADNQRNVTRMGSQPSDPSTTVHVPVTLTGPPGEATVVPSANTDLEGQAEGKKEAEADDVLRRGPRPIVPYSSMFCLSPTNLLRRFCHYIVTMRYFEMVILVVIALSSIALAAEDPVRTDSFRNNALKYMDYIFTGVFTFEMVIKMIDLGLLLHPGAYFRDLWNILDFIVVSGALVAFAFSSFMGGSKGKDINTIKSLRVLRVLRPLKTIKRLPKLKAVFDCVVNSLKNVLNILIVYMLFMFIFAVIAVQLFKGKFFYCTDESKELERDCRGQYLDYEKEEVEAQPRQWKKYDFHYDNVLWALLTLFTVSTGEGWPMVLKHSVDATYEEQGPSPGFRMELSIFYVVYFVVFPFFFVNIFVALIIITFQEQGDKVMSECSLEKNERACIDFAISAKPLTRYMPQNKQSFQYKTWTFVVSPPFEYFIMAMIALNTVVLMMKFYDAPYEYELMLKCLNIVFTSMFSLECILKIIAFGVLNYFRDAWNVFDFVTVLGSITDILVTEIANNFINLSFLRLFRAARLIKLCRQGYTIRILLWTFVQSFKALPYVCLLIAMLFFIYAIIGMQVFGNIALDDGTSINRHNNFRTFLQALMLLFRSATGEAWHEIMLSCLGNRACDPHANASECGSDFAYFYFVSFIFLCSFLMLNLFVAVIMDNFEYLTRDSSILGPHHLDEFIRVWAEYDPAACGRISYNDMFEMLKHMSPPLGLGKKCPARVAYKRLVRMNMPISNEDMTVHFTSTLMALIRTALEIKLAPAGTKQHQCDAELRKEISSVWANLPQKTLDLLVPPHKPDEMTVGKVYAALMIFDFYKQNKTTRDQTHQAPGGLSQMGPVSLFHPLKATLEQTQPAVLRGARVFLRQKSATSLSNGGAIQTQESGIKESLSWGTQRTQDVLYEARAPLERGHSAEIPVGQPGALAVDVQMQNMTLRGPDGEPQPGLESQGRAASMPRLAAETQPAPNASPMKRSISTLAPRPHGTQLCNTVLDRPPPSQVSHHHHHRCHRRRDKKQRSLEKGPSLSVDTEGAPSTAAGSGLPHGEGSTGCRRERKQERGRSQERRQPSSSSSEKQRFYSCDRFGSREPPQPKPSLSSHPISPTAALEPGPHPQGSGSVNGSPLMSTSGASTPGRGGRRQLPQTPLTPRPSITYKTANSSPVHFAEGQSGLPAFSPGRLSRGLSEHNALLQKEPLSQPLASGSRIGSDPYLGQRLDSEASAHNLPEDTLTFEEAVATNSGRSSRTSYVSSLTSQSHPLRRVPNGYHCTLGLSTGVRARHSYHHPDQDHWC

Substance: β3-core tagged with the CFP 159–238 fragment (from UniProt P54287 16-366) (domain or fragment)
- median ratio of cyan (BiFC) to red fluorescence [1]: 0.77
- median ratio of cyan (BiFC) to red fluorescence [2]: 0.23
- median ratio of cyan (BiFC) to red fluorescence [3]: 0.32
